Measured values: publication PMC3469567
Where “and” joins values, the source holds several entries; their conditions need not be identical. Identical values can stand only once. One block for each molecule: values may come before it.

Tests used:
[1] = molecular target: (N67D/)K113N-BS-RNase (bovine) (UniProt P00669); assay: SEC; thermally induced oligomerisation: 150-200 mg/ml in aqueous media (40% EtOH, with or without guanidine, and others), 45, 50 or 60°C for 1 h, then 0.2 M NaPi pH 6.7; Superdex 75
[2] = molecular target: (N67D/)K113N-BS-RNase (bovine) (UniProt P00669); assay: as above; remark: listed apart in the source
[3] = molecular target: (N67D/)K113N-BS-RNase (bovine) (UniProt P00669); assay: SEC; oligomers induced by lyophilisation from 40% acetic acid, re-dissolved in 0.2 or 0.4 M NaPi pH 6.7; Sephadex G-100 (0.1 M ammonium acetate pH 5.65) or Superdex 75 10/300 GL (0.2 or 0.4 M NaPi pH 6.7), room temperature; amounts as percent area of SEC peaks
[4] = molecular target: DFDNB-cross-linked native dimer of N67D-BS-RNase (bovine) (UniProt P00669); assay: as above
[5] = molecular target: T1, bovine pancreatic ribonuclease (RNase A) (bovine), P61823; assay: SEC; thermally induced oligomerisation: 150-200 mg/ml in aqueous media (40% EtOH, with or without guanidine, and others), 45, 50 or 60°C for 1 h, then 0.2 M NaPi pH 6.7; Superdex 75; conditions: remark: other sources report otherwise
T1 chain: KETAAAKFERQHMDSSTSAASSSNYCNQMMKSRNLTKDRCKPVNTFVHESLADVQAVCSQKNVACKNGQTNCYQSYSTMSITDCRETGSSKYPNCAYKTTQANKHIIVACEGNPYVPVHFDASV

[6] = molecular target: T1, bovine pancreatic ribonuclease (RNase …); assay: SEC; oligomers induced by lyophilisation from 40% acetic acid, re-dissolved in 0.2 or 0.4 M NaPi pH 6.7; Sephadex G-100 (0.1 M ammonium acetate pH 5.65) or Superdex 75 10/300 GL (0.2 or 0.4 M NaPi pH 6.7), room temperature; amounts as percent area of SEC peaks; conditions: remark: other sources report otherwise

stoichiometry N [1]: 4
stoichiometry N [2]: > 4
stoichiometry N [3]: 4
yield of dimer D (% of the total) (% of the total) [3]: 53.7
yield of hexamers H (% of the total) (% of the total) [3]: 10.9
yield of larger oligomers L.O. (% of the total) (% of the total) [3]: 9.9
yield of tetramer TT1/C (% of the total) (% of the total) [3]: 13.3
yield of tetramer TT2/N (% of the total) (% of the total) [3]: 12.2
Molecule: (N67D/)K113N-BS-RNase (from UniProt P00669 27-150) (enzyme)

stoichiometry N [4]: 4
Molecule: DFDNB-cross-linked native dimer of N67D-BS-RNase (from UniProt P00669 27-150) (enzyme)

stoichiometry N [5]: 2
stoichiometry N [6]: 2 and 3 and 4
B1: bovine pancreatic ribonuclease (RNase A), P61823 27-150 (enzyme)
chain: T1 chain
